Results as given in patent US8217140B2, “Peptides capable of binding to serum proteins and compounds, constructs and polypeptides comprising the same” (Ablynx N.V., priority 2008, dated 2012).

Assays:
[1] = target: Cynomolgus monkey serum albumin (Macaca fascicularis, UniProt A2V9Z4); experiment: Surface plasmon resonance (BIAcore 3000) of MycHis tagged 2D3-Expedite fusions, Example 10; type: binding; details: Cynomolgus monkey serum albumin
Experimental: (§1) The binding of the resulting 2D3-9GS-56E4-MycHis, 2D3-9GS-59C2-MycHis, 2D3-9GS-59F2-MycHis and 2D3-9GS-59H12-MycHis fusion proteins to human and cynomolgus serum albumin (HSA and CSA respectively) was determined using surface plasmon resonance analysis. For this purpose, binding to HSA and CSA was assessed in BIAcore™ 3000, by injecting concentration series of the fusion proteins ranging from 2 μM to 200 nM on a CM5 chip coated with ˜3000 RU HSA or CSA. Coating of the chip (CM5) was performed by amine coupling using NHS/EDC for activation and ethanolamine for deactivation (Biacore amine coupling kit). HBS-EP was used as flow buffer at a rate of 45 μl min-1. 90 μl of sample was injected for 120 s.

human serum albumin = human serum albumin (Homo sapiens, UniProt P02768); experiment: as above; type: binding; details: Human serum albumin
Experimental: as §1

[2] = cynomolgus monkey, in vivo
Experimental: The pharmacokinetic profile of the constructs was analyzed in male cynomolgus monkeys of approximately 3 to 4 years old and was compared to the reference (SEQ ID NO:165). The constructs and the control were each injected in three monkeys at a dose of 2 mg/kg via an intravenous bolus injection. Blood samples were taken at predose, 5 min, 20 min, 1 h, 2 h, 4 h, 8 h (test day 1) after administration and at test days 2, 3, 5, 7, 9, 12, 15, 18, 21, 24, 27, 30, 33. In order to obtain at least 1 mL plasma per animal per sampling time, a sufficient volume of whole blood was withdrawn per sampling time. Plasma was collected after whole blood centrifugation for 30 minutes at 2200 g at room temperature (RT). The plasma samples were stored at −80° C. until analysis.
For bioanalytical determination of constructs and control article in monkey plasma, plasma samples were tested for levels of constructs and the control using ELISA based PK assays. The detection of control and constructs in the ELISA assays is based on the binding of these Nanobodies with vWF and the assay set-ups are as such that total vWF-binding Nanobody is detected.
For the reference (SEQ ID NO:165) and the construct of SEQ ID NO:167, 96-well microtiter plates (Maxisorp, Nunc, Wiesbaden, Germany) were coated overnight at 4° C. with neutravidin (Pierce) in 10:10 buffer at 3 μg/ml. Wells were aspirated and blocked for 1 hour at RT with PBS/1% casein. After this blocking step, wells were washed with PBS/0.05% Tween20. A biotinylated bivalent Nanobody against the constructs was added to the neutravidin coated plate at 2 μg/ml in PBS/0.1% casein and incubated for 1 hour at RT. After the incubation step of this capture tool, wells were washed 3 times with PBS/0.05% Tween20.
Preparations of the standards, QC samples and dilutions of the test samples were performed in a non-coated (polypropylene) plate. For the standard curve and QC-samples, solutions at the required concentrations were prepared in PBS/0.1% casein and spiked into 100% monkey plasma. To prepare standards and QC samples, a 1/100 dilution of the pure monkey plasma dilutions was made in IgM-Reducing Agent (Immunochemistry Technologies, Bloomington, USA) supplemented with 2.5% pooled human plasma (referred to as sample diluent). For the test samples, dilution factors for the test samples were estimated, and ranged between 1/100 to 1/9000 for the reference of SEQ ID NO:165 tests and between 1/100 and 12000 for the construct of SEQ ID NO: 167. Samples were diluted 1/100 in sample diluent in a first step, and if needed, further dilution was done in sample diluent supplemented with 1% cynomolgus plasma.
Standards, QC samples and diluted test samples were transferred onto the coated plate and incubated for 1 hour at RT. Afterwards the plates were washed followed by a complexation step with purified vWF (ZLB Behring). vWF diluted to 2.5 μg/ml for the assay for the reference of SEQ ID NO:165 and to 3 μg/ml for the assay for the construct of SEQ ID NO: 167 in PBS/0.1% casein was incubated on the plates for 30 minutes at RT. Plates were washed and Nanobody/vWF complexes bound to the capture tool detected with Rabbit anti-human vWF Ab (Dako, Denmark), diluted 1/2000 in PBS/0.1% casein and incubated for 30 minutes at RT. After washing, a 1/15000 dilution in PBS/0.1% casein of Horse-Radish-Peroxidase labelled goat anti-rabbit Ab (Dako, Denmark) was added to the plate and incubated for 30 minutes at RT. The enzyme coupled to the Ab catalyzes a chemical reaction with the substrate sTMB (3,3′,5,5′-tetramethylbenzidine, SDT reagents, Brussels, Belgium), resulting in a colorimetric change. After stopping this reaction after 10 minutes using HC1 (1N), the intensity of the colour was measured using a spectrophotometer at 450 nm. […]

[3] = test system: platelet adhesion to fibrillar collagen; experiment: Perfusion experiments: platelet adhesion to collagen at arterial shear rate; type: cell-based, human
Experimental: The perfusion experiments were performed with a single-pass perfusion chamber under non-pulsatile flow conditions using a modified small perfusion chamber with a slit height of 0.1 mm and a slit width of 2 mm. […] Citrated human blood was preincubated at 37° C. for 5 min with or without addition of test compound, and then perfused through the chamber for 5 min at a wall shear rate of 1600 s^−1 using an infusion/withdrawal pump (pump 22, model 2400-004, Harvard Apparatus, Holliston, Mass.). After the perfusion run, the coverslips were rinsed in Hepes buffered saline (10 mM Hepes, 150 mM NaCl, pH 7.4) and platelets were fixed with 5% glutaraldehyde and stained with May-Grünwald and Giemsa. Platelet deposition of the coverslip was evaluated as platelet surface coverage of 10 randomly chosen pictures using light microscopy (Olympus BX61 microscope using Analysis Five digital imaging solutions analysis software).

VWF = experiment: Pharmacodynamic profile: ristocetin cofactor activity assay (% RICO) after i.v. administration; type: in vivo, Cynomolgus monkey
Experimental: For the constructs used in Example 14, pharmacodynamic characteristics upon compound administration were measured by means of a ristocetin cofactor activity assay (Biopool). The ristocetin cofactor activity is a functional assay for VWF, measuring the capacity of VWF to interact with the platelet receptor glycoprotein Ib using ristocetin as a modulator.
For pharmacodynamic data analysis, descriptive statistics (mean and SD) were calculated per dose group and per sampling time point using Microsoft Excel 2007. Response parameters and associated statistics for the overall time course were calculated by noncompartmental analysis of the response-time data using WinNonlin Pro 5.1 (Pharsight Corporation, USA; 2006). The non-compartmental analysis was based on a model for pharmacodynamic data (Model 220). The threshold value was set at 20% based on extensive historical PK/PD data on the vWF-0001 compound. Preclinical studies have shown that a complete inhibition of the pharmacodynamic marker are correlated with full antithrombotic efficacy. The following main pharmacodynamic parameters were determined: time below the threshold (Time below T), area under the threshold (AUC below T), time at which the % RICO first drops below the threshold (Tonset), and time at which the % RICO first returns back above the threshold (Toffset).

[4] = threshold 20% RICO, i.v. bolus 2 mg/kg, male Cynomolgus monkey, mean n = 3

Cynomolgus monkey serum albumin, sequence (A2V9Z4 25-608): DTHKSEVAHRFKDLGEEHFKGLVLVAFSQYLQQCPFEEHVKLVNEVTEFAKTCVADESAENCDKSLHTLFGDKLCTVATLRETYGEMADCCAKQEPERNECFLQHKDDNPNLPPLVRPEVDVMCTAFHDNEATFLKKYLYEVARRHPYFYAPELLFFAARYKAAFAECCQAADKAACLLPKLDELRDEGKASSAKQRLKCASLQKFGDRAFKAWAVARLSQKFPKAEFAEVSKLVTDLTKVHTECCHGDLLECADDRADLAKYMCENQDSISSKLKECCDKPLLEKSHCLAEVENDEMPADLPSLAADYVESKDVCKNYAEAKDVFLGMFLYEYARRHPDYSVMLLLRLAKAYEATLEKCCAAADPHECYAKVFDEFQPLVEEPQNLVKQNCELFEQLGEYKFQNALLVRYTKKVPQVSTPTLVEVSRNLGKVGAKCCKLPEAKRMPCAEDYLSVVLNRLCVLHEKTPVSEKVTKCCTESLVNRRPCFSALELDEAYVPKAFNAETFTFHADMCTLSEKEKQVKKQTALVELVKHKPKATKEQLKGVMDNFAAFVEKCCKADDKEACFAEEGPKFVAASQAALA

B1: 2D3-9GS-56E4-MycHis: SEQ ID NO: 158 (protein)
chain: EVQLVESGGSLVQPGGSLRLSCAASGFTFDDYAMSWVRQVPGKGLEWVSSINWSGTHTDYADSVKGRFTISRNNANNTLYLQMNSLKSEDTAVYYCAKNWRDAGTTWFEKSGSAGQGTQVTVSSGGGGSGGGSAAARYWDYDVFGGGTPVGGAAAEQKLISEEDLNGAAHHHHHH
modifications: Myc-His tag
[1]; chip ~3000 RU
  ka: 4.01E+03 1/ms
[1]; dissociation rate
  koff (dissociation rate constant): 0.00845 s⁻¹
Human serum albumin; chip ~3000 RU
  ka: 5.02E+03 1/ms
Human serum albumin; dissociation rate
  dissociation rate constant (koff): 0.00497 s⁻¹

B2: 12A2_sv1-AAA-12A2_sv1-9GS-59C2-9GS-59C2 (protein)
chain: DVQLVESGGGLVQPGGSLRLSCAASGRTFSYNPMGWFRQAPGKGRELVAAISRTGGSTYYPESVEGRFTISRDNAKRTVYLQMNSLRAEDTAVYYCAAAGVRAEQGRVRTLPSEYTFWGQGTQVTVSSAAAEVQLVESGGGLVQPGGSLRLSCAASGRTFSYNPMGWFRQAPGKGRELVAAISRTGGSTYYPESVEGRFTISRDNAKRTVYLQMNSLRAEDTAVYYCAAAGVRAEQGRVRTLPSEYTFWGQGTQVTVSSGGGGSGGGSRDWDFDVFGGGTPVGGGGGGSGGGSRDWDFDVFGGGTPVGG
[2]
  Vdss lower relative to vWF0001: 19 fold
  dominant half-life (t½ dominant) increase relative to vWF0001: 158 fold
  mean CL decrease compared to the control: 67 fold
[2]; iv, 2 mg/kg
  AUCinf: 4140 µg·h/mL
  C0: 69.4 µg/mL
[3]; FIG. 12
  Effective concentration compared to VWF0001: similar
[3]; citrated human blood, wall shear rate 1600 s^−1, FIG. 12
  inhibition of platelet adhesion to fibrillar collagen at arterial shear rate: dose-dependently and completely inhibit
VWF; estimated, i.v. application
  Tonset values: ~5 min
VWF; i.v. bolus
  mean AUC under the threshold increase relative to vWF0001: 259 fold
  time below the threshold increase relative to vWF0001: 167 fold
VWF; [4]
  AUC below T: 1709 % RICO * h
  Time below T: 202 h
VWF; time % RICO first drops below threshold, i.v. bolus 2 mg/kg
  Tonset: 0.079 h
VWF; time % RICO first returns above threshold, i.v. bolus 2 mg/kg
  Toffset: 202 h
